A short description of the data set: label from the status in PepcDB records.

The results in this text go back to a protein production outcome set (Wang et al. 2014).
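Also: failed if final PepcDB status was selected cloned or expressed and not failed if soluble or beyond.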

“AGGTTPAELRAAAADFTWLLNRFATETAGVVDAIAVSSDGLLIAVSELREHADSERLAAIVSGITSLAAGASGNYGLGGLNKVIIDLEGGHVLVSAIGSGAVLGVVTDKEAKLGNIAYEMTLFANRAGAALS”: the protein production entry was “failed”. As for “AGKPDWDWQPAPKNEALIAAVSAAAQEGLNAAYQIREKQARTTKLREVYAAVQAAMAEQAAQAGQPAPDSVGVDNILFDLEARIVRSQILNGEPRIDGRDTRTVRP”, the entry is “not failed”; as for “AHADFEHLPVALMKFGSDGSLRVANRAARDLLGLGHDAQPDFSDLFEGLGRAVRDWLADVAAERMPGGAEVLRLRRSEEEVFLQIALRRIVEHGRPLVLAVLNDAT”, “failed”; as for “AHHHHHHGSKMIKVKVIGRNIEKEIEWREGMKVRDILRAVGFNTESAIAKVNGKVVLEDDEVKDGDFVEVIPVVSGG”, “not failed”.

For “AHKLFIGGLPNYLNDDQVKELLTSFGPLKAFNLVKDSATGLSKGYAFCEYVDINVTDQAIAGLNGMQLGDKKLLVQRASVGAKNA”, the protein production entry is “not failed”. For “AIACHTQVGGSMQVPEPRRPFTCSSENNVTNSFFEEAYSASFRSKLYNMVEEIEQERAKYCNSANLSYMDAFGVEKESIEEDYNKEEDRDSLCSVDIADNSETSNRSSEDLLCDNCSKSLMFLNNVFKWNDLLFCNLDCYTSAILKNQKGADVKHRVACSLSPTWHKDCVHSVQD”, the protein production result is given as “not failed”. The result for “AIAELTGQRLREGDGPDGPADDGAGAQADLEHSLLVAAEKKDEGPYRMEHFRWGSPPKDKRYGGFMTSEKSQTPLVTLFKNAIIKNAYKKGE” reads “failed”.

As for “AIAMFTLPLLFPIITLPEPTGKYTVGTKAFHLIDTNRKETTVPNNHGNRELMIQVYYPAEKGSGKPSAYFENIDALAEQLAVTKGAPYIVTTHLGLTKTHSYQDAKPLQVKEKFPLLLFGHGMELYGQQNTFQLEELASQGYVVIALNFTGYAATTIFPNGKRIDSVPIEFTPNALNNMVRNWEQDTTFILNEVIKGNFDKNFTAIANLIDDDKIGMFGHSYGGATAAQMLVKDNRIKAAIDMDGGLYGDPMPKDGPQKPFMLMNAEATIQYMKEAENQKTDGIQDELFEISYLRNKTIEKPGAYTVVLPKTNHNSFTDLAAFSPIINEPGEDVSANYTLINKLVTSFFDQTLKG”, the protein production entry is on record as “failed”. As for “AIAPLGEEKNGKCDGSIYVNNPHLDSMTDDILYHFNLGTSTHDLPKMFGDVKFVCVGGSPWRMKSFTEYIAKELGLVDPNAEYPNICAGTDRYAMYKVGPVLSVSHGMGIPSISIMLHELIKLLYHARCTDVTVVRIGTSGGIGLKPGTVVVTKQSVDSLFQPHLEQTILGKPVVRSTELDKELAEELLQCGKELGEFEIIIGNTMCTLDFYEGSNVFEDKCTRIAAYSFKIHVL”, the entry is “failed”; as for “AIAPSDLAKKKAAKKKEAAKARGRTRKPEDGVNGDAEKPEIQENGAAEVNGVDSLAKELDEFELKKTEARAVTGVLASHPNSTDVHISSLSLTFHGQELLSDTSLELNSGRRYGLIGLNGTGKSMLLSAISHREVPIPEHIDIYHLTREMAPSEKTALQCVMEVDEERIKLEKEAERLAHEDSECEKLMELYERLEELDADKASMRASRILHGLGFTTSMQQKKLKDFSGGWRMRVALARALFLKPFMLLLDEPTNHLDLDACVWLEEELSQFKRILVLISHSQDFLNGVCTNIIHLHQRKLKYYTGNYDQYVKTREELEENQMKRFNWEQDQIAHMKNYIARFGHGSAKLARQAQSKEKTLQKMVASGLTERVVNDKTLSFYFPPCGKIPPPVIMVQNVSFRYSENTPYIYKNLEFGIDLDTRVALVGPNGAGKSTLLKLLTGELLPSDGMIRKHSHVKIGRYHQHLTEQLELDLSPLEYMMKCYPEIKEKEEMKKIIGRYGLTGKQQVSPIRNLSDGQKCRVCFAWLAWQNPHMLFLDEPTNHLDIETIDALAEAINDFEGGMMLVSHDFRLIQQVAQEIWVCEKQTITKWSRDILAYKEHLKSKIDKQMHDL”, “failed”. For the sequence “AIATSALENYINRTVAVITSDGRMIVGTLKGFDQTINLILDESHERVFSSSQGVEQVVLGLYIVRGDNVAVIGEIDEETDSALDLGNIRAEPLNSVAH”, the protein production result is “not failed”. Take “AIDENKQKALAAALGQIEKQFGKGSIMRLGEDRSMDVETISTGSLSLDIALGAGGLPMGRIVELYGPESSGKTTLTLQVIAAAQREGKTCAFIDAEHALDPIYARKLGVDIDNLLCSQPDTGEQALEICDALARSGAVDVIVVDSVAALTPKAEIEGEIGDSHMGLAARMMSQAMRKLAGNLKQSNTLLIFINQIRMKIGVMFGNPETTTGGNALKFYASVRLDIRRIGAVKEGENVVGSETRVKVVKNKIAAPFKQAEFQILYGEGINFYGELVDLGVKEKLIEKAGAWYSYKGEKIGQGKANATAWLKDNPETAKEIEKKVRELLLSNPNSTPDFSVDDSEGVAETNEDF”: the protein production result is “not failed”. Turning to “AKGSMIQFDAPDGKKANAYMVKASSPSTKYVFLIHEWWGLNDYIKKDADKLYADLGGNVNIMALDLYDGKVTANRDSAAAYMGAASATRIGSILNGAFMFAGDKAEIISMGWCFGGGWALQSSILAGNKSKGTIMYYGMTEKDPVKLAGLKGDVLGIFGSKDKWINPEMVAAFDKDLTAAGKKHTIKSFDADHAFANPSNPQFNKAYTEEAWGMSVAFIKKAFG”, the protein production result is recorded as “failed”.

Turning to “AKTWVLTNAEEGIDKGNWQINSDQLKVKDHAFSIEQKVLHGGKQEGSKILTIHSKDGLTITLSPTRGMNLLRIEGFGSRMGWDSPVKEVVNPAFINLESRNGLGWLEGFNEMMVRCGYEWTGHPVTADGQIYTLHGKAGNTPASLVEVEVADSAPYEIRIRGLVKESTFKKADLQTLTELRYVPGSNSFSLHDVLTNHADYPHDYQIIYHSNFGTPILEEGARFLAPISSISPFNDYAKSGLKTWQTYQGPTKDFDEMVFNIQPLADENHQTLAAVVNKAGDKGASIQFDTRQLPVLTLWKNTDTVKQGYVTGIEPGTSYAYPVTIERKQKRVKQLQPGASAQFDLTYTLLHDSAQVAAVEQKIAKIQGDNKVAENETPIAKE”, the protein production result is given as “not failed”. As for “ALGVGRSGAMDQTALSQANRIVGNPDHAAVIEILNGGLKLKVLQSTVVAVTGAASHIGVSYAGQAQVKVPDYSPIALDCGDLLYIDSPHAGLRHYLAIRGGIKTEKILGSASFDTLAELGTPPLKPHDFIYSAELSVGSVLLHEKCAQQLPKIGDVVEVDVILGPRTDWFEPESLTQFFQQQWLVTQESNRIGLRLSAGLPLKRQIHGELASEGTCTGALQIPPNGQPVLFMNDHPLTGGYPVLGAIAIDHLDRVAQIPPGCLIQFRQKSEILDLDKEST”, the protein production result is “failed”. For “ALKQKIIGNGEKRVVTYAPTWREDDFISVGHYHFRWHFSLKKMMGLLPEDVMLLIRPHYLVTDRIDIKGFEDRVVIDSTTDMNEIYLITDLMVTDYSSVMFDFAILKRPMLFFAYDLEYYRDDLRGFYFDYYTELPGSIVTDETHLLAEIDQLLQNNFAELDPERFNKFAKRFVSWERGTAAQQVIEKINYRRDEK”, the protein production result was “failed”. With “ALSGSSGYKFGVLAKIVNYMKTRHQRGDTHPLTLDEILDETQHLDIGLKQKQWLMTEALVNNPKIEVIDGKYAFKPKYNVR”, the protein production result is given as “not failed”. As for “ALSSLNIIHIAAPHLEALNIATGETINFSSREDDHAILIYKLEPTTGMLRTRAYIGQHMPLYCSAMGKIYMAFGHPDYVKSYWENHQHEIQPLTRNTITELPAMFDELAHIRESGAAMDREENELGVSCIAVPVFDIHGRVPYAVSISLSTSRLKQVGEKNLLKPLRETAQAISNELGFTVRDDLGAIT”, the entry is “not failed”; as for “ALVNIVVTNRCDLSCFYCFFYAERAGYIYEPSIEQIKFMVRQVARQRQGSDVHVNIQITGGEPTVREDLVDVVKAIREAGAHYIQLNTNGINVARRYLDNPPGAIDYVRSLREAGVSVVYMSFDGVTPKVNWKNHYEAPFALKAFQEGGLDNVVLVPTVIRTINDHEVGDIIRFAGKHIDVVRGVNFQPVSLTGM”, “failed”; as for “ANLYWFRADWFERPDLKKKFKDKYGYELGVPVNWSAYEDIAKFFSEDVKEIDGKKVFGHMDYGKKDPSLGWRFTDAWFSMAGSGDKGLPNGLPVDEWGIRVEDCHPVGSSITRGGDTNGPAAVFATQKYIDWLKAYAPPEAAGMTFSESGPVPSQGNVAQQIFWYTAFTADMTKPGLPVMNADGTPKWRMAPSPKGPYWKEGMKLGYQDVGSWTFLKSSDEKKRLAAWLYAQFVTSKSVSLKKTIVGLTPIRESDINSK”, “failed”.

As for “APAEIFNVVKYPAKLGDMYAYLTPPPANKKNKLPAVIWLNGGYGGIGGDDYFWTPQPVENDQTGATFRDPNMVLMIPSFRGENTNPGRYEMFYGELEDLDSAREYLASLPYVDPKRIYVVGHSTGGTRALLASEYSDKFRAIFSLGGIPDLKLRTEGRMMVELPFDKNNEEEFNVRSVYRYIKSIKTPTFYFEGHDYFWDEFNELRVVAMEHDIPLKIYNIKNGDHFNIIVPVSQLIKEKILQDTDTNKESNIRFTNEEIKWINKMVK”, the protein production entry is given as “failed”. As for “AQKLSATSRILSSSRGPAPDDIADFFGTDRAAQHITLRRLRLGNGRPYAIDNGWYNSEFAPDLLENDVYNSVYSILDRVYGVPVTQAEQTVTAVAADEDTARLLDVTPGAPLLRILRQSLSGDKPVEWCVSLYRTDRYSLKTLVTRSEDL”, the protein production entry is “not failed”. The result for “AQTRLLIQNRLVAQRDEFDNVFHSIRDGVITYDTDFRIHFTNRSLLKMLHLPKDEAARPYEGLPAGSIFKIYNNGKEILRPMLKQVVTEESSVVIPENSFMQEVHSGSYFPVSGEVVPIRAHGKITGMALSARNIS” reads “failed”; that for “ARGHRHTCKVMVLKEEAAGSERALALDMREGQRVFHSLIVHFENDIPVQIEDRFVNAQVAPDYLKQDFTLQTPYAYLSQVAPLTEGEHVVEAILAEADECKLLQIDAGEPCLLIRRRTWSGRQPVTAARLIHPGSRHRLEGRFTK”, “not failed”. As for “ARYLDVTSRRDPEHSHRTYYVTGQVFFASADRFTASFDLREKVETLAIDLREAHFWDITAVAALDKVVLKLRRAGISVDVVGMNRATATLVDRFGVHDKPDGIDSLMGH”, the entry is “failed”; as for “ASLKDFELSKMLEKVAKESSVGTPRAINEDILDQGYTVEGNQLINHLSVRASHAERMRSNPDSVRSQLGDSVCSNTGYRQLLARGAILTYSFTEYKTNQPVATERFDAGSCRIQGKK”, “not failed”; as for “ASNSQLNAMAHQIQEMFPQVPYHLVLQDLQLTRSVEITTDNILEGRIQVPF”, “not failed”. The result for “ASTVHEMGVFASLDDAVAAAKRAQQGLKSVAMRQLAIHAIREAGEKHARELAELAVSETGMGRVDDKFAKNVAQARGTPGVECLSPQVLTGDNGLTLIENAPWGVVASVTPSTNPAATVINNAISLIAAGNSVVFAPHPAAKKVSQRAITLLNQAVVAAGGPENLLVTVANPDIETAQRLFKYPGIGLLVVTGGEAVVDAARKHTNKRLIAAGAGNPPVVVDETADLPRAAQSIVKGASFDNN” reads “failed”; that for “ATEATNATNNQSTQVSQATSQPINFQVQKDGSSEKSHMDDYMQHPGKVIKQNNKYYFQTVLNNASFWKEYKFYNANNQELATTVVNDNKKADTRTINVAVEPGYKSLTTKVHIVVPQINYNHRYTTHLEFEKAIPTLADAAK”, “not failed”.
